Results reported in the supplement of paper PMC9170038.

Test system: MS2 coat protein
Assay: apparent KD of MS2 coat protein; designed switch direction (-1 OFF switch, 1 ON switch): -1; higher = weaker reporter binding
Method in brief: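 Designed RNA switches with common flanks were transcribed on Illumina chips by stalled E. coli RNA polymerase and titrated with SNAP-549-labelled MS2 coat protein, from 0.7 or 1.5 nM doubling to 3 µM, in Tris-HCl pH 7.5 buffer with KCl, MgCl2, BSA, DTT, tRNA and Tween-20. Steps lasted 0.8–1.5 h (lowest) to 10–20 min (highest). Titrations ran without input, with 200 uM small-molecule ligand, or with an oligonucleotide input. Normalised cluster fluorescence was curve-fitted, and apparent KD is the per-design median over clusters.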

[1] = input ligand: microRNA oligo, concentration not stated
[2] = Eterna round: R95, input ligand: FMN 200 uM
[3] = Eterna round: R95, input ligand: microRNA oligo, concentration not stated
[4] = Eterna round: R95, input ligand: none

Sequence	apparent KD of MS2 coat protein (input ligand: FMN 200 uM)	apparent KD of MS2 coat protein (input ligand: none)	apparent KD of MS2 coat protein [1]	apparent KD of MS2 coat protein [2]	apparent KD of MS2 coat protein [3]	apparent KD of MS2 coat protein [4]
GAAGAUCGAGUUAGGAUAUGAUUACUAUCCGAAAAUCAGAAGGAACUUGAGGAUCACCCAAGUAAAGAAGAAAU [JR_BMEx4_Sub051] (Eterna round: R97, puzzle: Brourd's mod of Exclusion 4)	22.9 nM	16.5 nM				
UUUAUUUUGCAAGGAUAUGUUUAAUUUUAGUUUCCUUAUACAUGAGGAUCACCCAUGUUAUACUUACAGAAGGUGCAUAAUUUU [JR_ExcNG2_Sub037] (Eterna round: R96, puzzle: Exclusion NG 2)			68.7 nM			
AAAUUAACUUAGGAUAUCGGCUGAAACAGCGUACGAGAAGGAAGUACAUGAGGAUCACCCAUGUGUCCCGUGCU [Teentibi] (Eterna round: R97, puzzle: Exclusion 6)	68.6 nM	38.1 nM				
GCACGGAAUGUAGGAUAUUAGUGCGAUUAGCACUGAGAAGGACAUGAGGAUCACCCAUGUUCCUCAAUAAUAAACCUUCCGUGC [Eli exng1 - 044] (Eterna round: R96, puzzle: Exclusion NG 1)	13 nM	13.3 nM	10.2 nM			
UUACCUAGUGUUAGGAUAUGCGACGGGUGACCGUUGCAGAAGGAACAUGAGGAUCACCCAUGUUUAAUAAAAUC [JL-BMX4-4.45 ViennaUCT mod] (Eterna round: R97, puzzle: Brourd's mod of Exclusion 4)	53.1 nM	12.6 nM				
GCUCAACAUGAGGAUCACCCAUGUGAGGAUAUGCGAAUUUCAUCAAAAGAUGAAAUUUGCAGAAGGCACUGAGC [Omei Ex1 A35] (Eterna round: R97, puzzle: Exclusion 1)	17.4 nM	16.5 nM				
AGUCAGGCGGUAGGAUAUCCAAAUCGAGUGACCCUCUCAUAACAUGAGGAUCACCCAUGUCGGUGGGAGAAGGGCCGUAAGGCA [Mat - Exclusion NG 2 - Mod of JL - D64] (Eterna round: R96, puzzle: Exclusion NG 2)	33 nM	30.9 nM	16.4 nM			
CAUGUAAGUCGUUGAUCCAACAUGAGGAUCACCCAUGUCACUUUAGCUUUUUGCUCGUCUUAUCCUCCUUUGUUCAC [JR_STOV1_v2_Sub0100] (Eterna round: R97, puzzle: Sensor, turn-off variant 1)	482 nM	1060 nM				
AGAUGGCGAGGAUAUACAUGAGGAUCACCCAUGUGAAGAAGAAGAGUGAGGAAGAAAAGUAGAAGGCGCUGUCA [Mat - Exclusion 3 - Mod of Salish D30] (puzzle: Exclusion 3)				137 nM	45.8 nM	64.7 nM
GGAUCGAGAGUGAGGAUAUGCUGGUCCUUGGAUCAGCAGAAGGCACAUGAGGAUCACCCAUGUGAUUCCGAUCC [Mat - Exclusion 4 - Eli Mod - D39] (Eterna round: R97, puzzle: Brourd's mod of Exclusion 4)	399 nM	40.6 nM				
GUUUCACAUGAGGAUCACCCAUGUGAGGAUAUGAAUUUGUUAACCGUAGUUAAUAGAUUCAGAAGGCGCGUGAU [JRxlusion 1- Jieux - Exclusion 1] (Eterna round: R97, puzzle: Exclusion 1)	66.6 nM	70.3 nM				
GGCAUGCAAGGAUAUACUUACGGUGGUGUUCGAAGCUUUCUACUUGAGGAUCACCCAAGUAGAAGGUGCAUGCC [jl-ex2.4.74 ViennaUCT mod] (Eterna round: R97, puzzle: Exclusion 2)	18.7 nM	23.7 nM				
GAAAAGGUAGGAUAUACGAGAAGAAAGGGUAGAGAAGAAACACAUGAGGAUCACCCAUGUAGAAGGACCAAAAG [salish99_ex2_r3_099] (puzzle: Exclusion 2)				66.7 nM	29.9 nM	29.9 nM
CGGUGUAACGCAGGAUAUCAUCGCAACUGACGUUGAGAAGGGCGACAUGAGGAUCACCCAUGUGAUUUCUCAAUAUUAUACAUC [Prohibition 84 - Jieux - Exclusion NG 1] (Eterna round: R96, puzzle: Exclusion NG 1)	212 nM	59.8 nM	36.5 nM			
AGUGUGUGGCAGGAUAUUCUAAUCUUGAGGAGGGAAGAAGGGUCUACAUGAGGAUCACCCAUGUAAGCGGUUGA [Ex6 #41] (Eterna round: R97, puzzle: Exclusion 6)	142 nM	33.6 nM				
AUUAAUGUCAAAGGAUAUCAGCACGAUUAGUGCUGAGAAGGUUGAACAUGAGGAUCACCCAUGUAGAUCAUUAAUAAUUUAAUU [ENG1/10-B2] (Eterna round: R96, puzzle: Exclusion NG 1)	26.4 nM	16.9 nM	17.9 nM			
GGAUAGUGAGGAUAUCGAUGUUAGGAGGAUGAGGUAGGAUGCGAGAAGGCACAUGAGGAUCACCCAUGUAUGGU [JR_Exclu4_Sub070] (puzzle: Exclusion 4)					38.4 nM	
ACGUAACGAGCUUGAUCCAACAUGAGGAUCACCCAUGUGCUCGUCUUAUAACGUACUGUCACGUUAGUGAUAGUGCG [Sensor v3, turn-off variant 1 (MOD of Eli's v1-13 v.5)] (puzzle: Sensor v3, turn-off variant 1)				971 nM	369 nM	1190 nM
AACAUGAGGAUCACCCAUGUAAUGGACAGAUCACCGACCACGCAGGAUAUUAGGCCUCAAAUUCUUAAGAAGGGCGAGGAUGUG [Eternabot solution 49] (Eterna round: R96, puzzle: Exclusion NG 3)	50.3 nM	66.9 nM	52 nM			
ACAUGAGGAUCACCCAUGUCCGGUUGGUUUUCUCCGGCUGUUGAGGAUAUAGUCCGGUAUCCGCGCUAGAAGGUGAGGGUUGGC [Aenatbe mod 12] (Eterna round: R96, puzzle: Exclusion NG 3)	212 nM	165 nM	125 nM			
UUUUAACAUGAGGAUCACCCAUGUGAGGAUAUCGAAAUUUAUAUUAAUAUUUAUUAUACGAGAAGGCACAUUUU [JMF 62] (puzzle: Exclusion 1)					77.5 nM	
UUCAUGUGAGGAUAUAGUACUUCUUCUAUUAUUAUUGAGUACUAGAAGGCACAUGAGGAUCACCCAUGUAGUAC [Ex4 - 3 - 43] (Eterna round: R96, puzzle: Exclusion 4)	21.8 nM	39.1 nM	22.1 nM			
AAAUUCAGAGGAUAUGCGCAUAGAUAAGACUUUUUUUUUUAACAUGAGGAUCACCCAUGUAGAAGGCUGUAACA [Ex2 #50] (Eterna round: R97, puzzle: Exclusion 2)	25.4 nM	21.2 nM				
CAAAACCUAGGAUAUACAUGAGGAUCACCCAUGUCGGGCCUACGCUAAACGCGCCUCAGUAGAAGGAGGGAAAC [Usasoon] (puzzle: Exclusion 3)				135 nM	52.6 nM	63.2 nM
CUUUCGUGAGGAUAUCAGUAGUAAAAAUAUAAAAUUACUACUGAGAAGGCACAUGAGGAUCACCCAUGUUCCUC [salish99_ex3_r3_100] (puzzle: Exclusion 4)					24.1 nM	
